From US20190112349A1 (UNUM THERAPEUTICS, published 2019)
Where two headings read alike, the source gives them in different places.

Legend:
Experiment in all cases: cell-based or functional assay
[1] = target: ACTR variant 1 (wild-type ACTR)
ACTR variant 94 = target: ACTR variant 94
ACTR variant 127 = target: ACTR variant 127
ACTR variant 93 = target: ACTR variant 93
ACTR variant 103 = target: ACTR variant 103
ACTR variant 26 = target: ACTR variant 26
ACTR variant 131 = target: ACTR variant 131
[2] = target: ACTR variant 1 (wild-type ACTR); remark: listed apart in the source
ACTR variant 102 = target: ACTR variant 102
Chain of ACTR variant 102 (chain, as listed by the source mutant limits assumed): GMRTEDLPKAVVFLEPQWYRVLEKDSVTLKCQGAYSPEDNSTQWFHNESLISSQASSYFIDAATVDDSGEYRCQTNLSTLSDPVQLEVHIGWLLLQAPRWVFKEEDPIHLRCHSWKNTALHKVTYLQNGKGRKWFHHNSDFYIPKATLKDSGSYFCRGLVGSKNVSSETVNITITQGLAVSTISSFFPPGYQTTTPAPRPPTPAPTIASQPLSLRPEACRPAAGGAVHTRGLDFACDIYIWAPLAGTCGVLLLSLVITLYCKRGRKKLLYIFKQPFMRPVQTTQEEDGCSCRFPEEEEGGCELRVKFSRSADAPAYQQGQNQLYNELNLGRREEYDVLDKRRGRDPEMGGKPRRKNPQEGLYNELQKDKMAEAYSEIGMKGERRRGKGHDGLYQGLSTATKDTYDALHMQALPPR

Chain of ACTR variant 131 (chain, as listed by the source mutant limits assumed): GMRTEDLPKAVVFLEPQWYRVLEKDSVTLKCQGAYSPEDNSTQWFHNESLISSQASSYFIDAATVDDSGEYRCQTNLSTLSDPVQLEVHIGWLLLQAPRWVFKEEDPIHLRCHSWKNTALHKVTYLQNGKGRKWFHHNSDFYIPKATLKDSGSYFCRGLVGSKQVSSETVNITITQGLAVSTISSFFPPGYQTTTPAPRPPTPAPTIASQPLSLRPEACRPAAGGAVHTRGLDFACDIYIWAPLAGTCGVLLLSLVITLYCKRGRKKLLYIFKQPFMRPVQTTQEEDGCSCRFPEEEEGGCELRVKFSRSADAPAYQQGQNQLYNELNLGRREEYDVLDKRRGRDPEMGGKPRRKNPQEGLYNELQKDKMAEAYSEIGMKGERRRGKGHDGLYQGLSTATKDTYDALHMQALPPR

B1: wild-type anti-BCMA antibody (antibody)
heavy: not shown
light: DIVLTQSPPSLAMSLGKRATISCRASESVTILGSHLIHWYQQKPGQPPTLLIQLASNVQTGVPARFSGSGSRTDFTLTIDPVEEDDVAVYYCLQSRTIPRTFGGGTKLEIKRTVAAPSVFIFPPSDEQLKSGTASVVCLLNNFYPREAKVQWKVDNALQSGNSQESVTEQDSKDSTYSLSSTLTLSKADYEKHKVYACEVTHQGLSSPVTKSFNRGEC
Jurkat NFAT luciferase EC50 [1]: < 20 nM

B2: Fc-enhanced anti-BCMA antibody (S239D, I332E) (antibody)
heavy: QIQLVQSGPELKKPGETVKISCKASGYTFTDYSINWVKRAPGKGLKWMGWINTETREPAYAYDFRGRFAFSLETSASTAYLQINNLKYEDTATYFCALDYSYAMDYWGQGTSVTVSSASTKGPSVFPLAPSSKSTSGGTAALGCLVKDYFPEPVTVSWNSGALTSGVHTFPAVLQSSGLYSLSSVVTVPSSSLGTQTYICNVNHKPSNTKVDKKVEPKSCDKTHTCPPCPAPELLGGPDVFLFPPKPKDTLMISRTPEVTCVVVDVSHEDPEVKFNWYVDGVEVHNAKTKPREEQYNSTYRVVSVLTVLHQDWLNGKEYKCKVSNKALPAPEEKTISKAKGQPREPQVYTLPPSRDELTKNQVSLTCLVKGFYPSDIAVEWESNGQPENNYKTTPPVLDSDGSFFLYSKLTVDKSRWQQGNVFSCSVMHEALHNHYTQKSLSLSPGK
light: DIVLTQSPPSLAMSLGKRATISCRASESVTILGSHLIHWYQQKPGQPPTLLIQLASNVQTGVPARFSGSGSRTDFTLTIDPVEEDDVAVYYCLQSRTIPRTFGGGTKLEIKRTVAAPSVFIFPPSDEQLKSGTASVVCLLNNFYPREAKVQWKVDNALQSGNSQESVTEQDSKDSTYSLSSTLTLSKADYEKHKVYACEVTHQGLSSPVTKSFNRGEC
Jurkat NFAT luciferase EC50 [1]: 0.83 nM
Jurkat NFAT luciferase EC50 (ACTR variant 94): < 100 nM
Jurkat NFAT luciferase EC50 (ACTR variant 127): < 100 nM

B3: afucosylated Fc-enhanced anti-BCMA antibody (S239D, I332E) (antibody)
heavy: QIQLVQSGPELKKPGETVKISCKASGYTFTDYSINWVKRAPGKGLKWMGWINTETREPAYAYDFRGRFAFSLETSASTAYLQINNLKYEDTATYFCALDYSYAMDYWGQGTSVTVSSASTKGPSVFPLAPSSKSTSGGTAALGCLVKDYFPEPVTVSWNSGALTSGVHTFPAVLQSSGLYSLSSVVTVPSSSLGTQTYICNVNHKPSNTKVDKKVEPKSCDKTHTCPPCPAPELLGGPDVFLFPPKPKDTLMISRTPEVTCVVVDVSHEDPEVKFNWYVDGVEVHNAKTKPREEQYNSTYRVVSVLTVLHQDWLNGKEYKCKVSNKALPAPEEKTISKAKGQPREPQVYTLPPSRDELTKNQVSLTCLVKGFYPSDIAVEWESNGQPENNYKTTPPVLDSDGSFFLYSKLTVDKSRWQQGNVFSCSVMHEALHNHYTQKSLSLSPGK
light: DIVLTQSPPSLAMSLGKRATISCRASESVTILGSHLIHWYQQKPGQPPTLLIQLASNVQTGVPARFSGSGSRTDFTLTIDPVEEDDVAVYYCLQSRTIPRTFGGGTKLEIKRTVAAPSVFIFPPSDEQLKSGTASVVCLLNNFYPREAKVQWKVDNALQSGNSQESVTEQDSKDSTYSLSSTLTLSKADYEKHKVYACEVTHQGLSSPVTKSFNRGEC
modifications: afucosylated Fc glycan
Jurkat NFAT luciferase EC50 [1]: 0.17 nM
Jurkat NFAT luciferase EC50 (ACTR variant 93): < 5 nM
Jurkat NFAT luciferase EC50 (ACTR variant 103): 8.44 nM
Jurkat NFAT luciferase EC50 (ACTR variant 26): 4.36 nM
Jurkat NFAT luciferase EC50 (ACTR variant 94): 1.12 nM
Jurkat NFAT luciferase EC50 (ACTR variant 127): 2.26 nM

B4: afucosylated anti-BCMA antibody (antibody)
heavy: not shown
light: DIVLTQSPPSLAMSLGKRATISCRASESVTILGSHLIHWYQQKPGQPPTLLIQLASNVQTGVPARFSGSGSRTDFTLTIDPVEEDDVAVYYCLQSRTIPRTFGGGTKLEIKRTVAAPSVFIFPPSDEQLKSGTASVVCLLNNFYPREAKVQWKVDNALQSGNSQESVTEQDSKDSTYSLSSTLTLSKADYEKHKVYACEVTHQGLSSPVTKSFNRGEC
modifications: afucosylated Fc glycan
Jurkat NFAT luciferase EC50 [1]: 1 nM
Jurkat NFAT luciferase EC50 (ACTR variant 93): < 100 nM

B5: Fc-enhanced anti-CD19 antibody (antibody, V domains shown)
VH: EVQLVESGGGLVKPGGSLKLSCAASGYTFTSYVMHWVRQAPGKGLEWIGYINPYNDGTKYNEKFQGRVTISSDKSISTAYMELSSLRSEDTAMYYCARGTYYYGTRVFDYWGQGTLVTVSS
VL: DIVMTQSPATLSLSPGERATLSCRSSKSLQNVNGNTYLYWFQQKPGQSPQLLIYRMSNLNSGVPDRFSGSGSGTEFTLTISSLEPEDFAVYYCMQHLEYPITFGAGTKLEIKR
Jurkat NFAT luciferase EC50 (ACTR variant 131): 2 nM
Jurkat NFAT luciferase EC50 [2]: 0.26 nM
Jurkat NFAT luciferase EC50 (ACTR variant 102): 2.2 nM
